For two substances, Kd and decrease in α2δ-1 immunostaining in hippocampal neurites after co-transfection with CaV2.2-HA/β1b, α2(3C)δ-1 relative to WT α2δ-1 results are on record in article PMC5092059.

The target of one experiment is 3H-gabapentin. In words: 3H-gabapentin radioligand saturation binding. Particulars: DRM fractions from transfected tsA-201 cells; n = 4.
Experiment [1] has as its target GFP-CaV2.2 (rabbit CaV2.2 with an N-terminal GFP) (rabbit) (UniProt Q05152).
Chain of UniProt Q05152 (Q05152 whole entry): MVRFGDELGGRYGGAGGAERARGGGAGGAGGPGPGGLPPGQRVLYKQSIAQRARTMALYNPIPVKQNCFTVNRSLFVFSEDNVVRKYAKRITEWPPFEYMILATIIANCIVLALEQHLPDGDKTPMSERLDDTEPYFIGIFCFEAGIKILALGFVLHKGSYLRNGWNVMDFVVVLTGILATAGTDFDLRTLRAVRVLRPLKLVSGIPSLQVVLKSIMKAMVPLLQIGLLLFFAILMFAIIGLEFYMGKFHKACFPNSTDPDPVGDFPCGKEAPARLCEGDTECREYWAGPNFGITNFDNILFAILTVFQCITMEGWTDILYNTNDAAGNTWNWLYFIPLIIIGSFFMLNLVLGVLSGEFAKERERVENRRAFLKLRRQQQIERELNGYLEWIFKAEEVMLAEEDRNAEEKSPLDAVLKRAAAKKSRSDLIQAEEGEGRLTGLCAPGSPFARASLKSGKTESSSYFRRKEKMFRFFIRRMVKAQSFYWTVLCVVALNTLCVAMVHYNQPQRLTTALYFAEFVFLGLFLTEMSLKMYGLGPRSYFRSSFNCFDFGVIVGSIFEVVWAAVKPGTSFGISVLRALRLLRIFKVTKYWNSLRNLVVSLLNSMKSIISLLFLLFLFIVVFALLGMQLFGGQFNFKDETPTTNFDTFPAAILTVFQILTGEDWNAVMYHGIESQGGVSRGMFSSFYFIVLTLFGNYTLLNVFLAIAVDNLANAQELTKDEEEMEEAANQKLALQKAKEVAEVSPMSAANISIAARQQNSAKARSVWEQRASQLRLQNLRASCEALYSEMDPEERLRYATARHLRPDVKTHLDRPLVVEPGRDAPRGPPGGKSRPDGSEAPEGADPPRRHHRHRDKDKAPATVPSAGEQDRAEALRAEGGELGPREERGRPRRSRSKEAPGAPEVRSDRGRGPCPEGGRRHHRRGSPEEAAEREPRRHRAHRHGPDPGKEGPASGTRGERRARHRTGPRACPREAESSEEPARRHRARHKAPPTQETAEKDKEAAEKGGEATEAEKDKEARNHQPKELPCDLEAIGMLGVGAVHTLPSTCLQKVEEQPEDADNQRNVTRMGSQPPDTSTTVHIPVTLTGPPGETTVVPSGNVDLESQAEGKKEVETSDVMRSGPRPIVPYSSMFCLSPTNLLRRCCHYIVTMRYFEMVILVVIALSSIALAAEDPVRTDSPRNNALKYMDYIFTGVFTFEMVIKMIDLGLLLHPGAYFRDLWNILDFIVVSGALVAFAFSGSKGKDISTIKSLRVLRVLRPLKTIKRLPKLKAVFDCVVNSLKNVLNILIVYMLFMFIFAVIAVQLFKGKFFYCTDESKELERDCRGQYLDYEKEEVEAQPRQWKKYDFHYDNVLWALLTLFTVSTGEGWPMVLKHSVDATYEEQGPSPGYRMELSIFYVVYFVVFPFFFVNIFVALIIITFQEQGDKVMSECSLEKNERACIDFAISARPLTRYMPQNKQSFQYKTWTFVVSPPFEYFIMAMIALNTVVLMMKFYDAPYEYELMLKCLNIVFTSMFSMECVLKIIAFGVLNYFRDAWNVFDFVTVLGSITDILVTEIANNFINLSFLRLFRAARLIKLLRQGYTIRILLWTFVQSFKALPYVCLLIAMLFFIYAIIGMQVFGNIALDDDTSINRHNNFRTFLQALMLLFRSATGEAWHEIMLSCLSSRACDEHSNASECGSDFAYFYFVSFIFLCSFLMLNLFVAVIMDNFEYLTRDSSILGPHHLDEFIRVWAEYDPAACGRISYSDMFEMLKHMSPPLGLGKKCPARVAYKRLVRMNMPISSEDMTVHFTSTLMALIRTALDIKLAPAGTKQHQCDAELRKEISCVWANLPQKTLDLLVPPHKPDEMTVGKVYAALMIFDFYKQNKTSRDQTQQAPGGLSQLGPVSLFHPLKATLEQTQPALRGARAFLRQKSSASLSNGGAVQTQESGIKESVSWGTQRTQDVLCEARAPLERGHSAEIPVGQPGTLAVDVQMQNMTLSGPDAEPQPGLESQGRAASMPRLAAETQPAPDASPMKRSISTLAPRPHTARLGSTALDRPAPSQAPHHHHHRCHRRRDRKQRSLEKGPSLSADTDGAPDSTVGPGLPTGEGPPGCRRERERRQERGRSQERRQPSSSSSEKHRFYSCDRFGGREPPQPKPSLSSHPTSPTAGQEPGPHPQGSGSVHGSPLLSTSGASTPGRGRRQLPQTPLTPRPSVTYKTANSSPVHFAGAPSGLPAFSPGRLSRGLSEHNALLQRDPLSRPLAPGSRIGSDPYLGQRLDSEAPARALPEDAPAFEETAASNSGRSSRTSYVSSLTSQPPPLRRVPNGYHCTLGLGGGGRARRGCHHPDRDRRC

In general, Kd refers to the free concentration of one partner at which half of the binding sites on the other are occupied at equilibrium, for simple one-to-one binding. For the substance “wild type α2δ-1 (rat) (from UniProt P54290) LEAVEM replaced by VVVVVV (hexavaline, V6)”, in the experiment with 3H-gabapentin, the Kd was determined as 68.3 nM.

Regarding “α2(3C)δ-1 (rat α2δ-1 with the endogenous cleavage motif replaced by a Human Rhinovirus 3C-protease site) (natural protein)”, the decrease in α2δ-1 immunostaining in hippocampal neurites after co-transfection with CaV2.2-HA/β1b, α2(3C)δ-1 relative to WT α2δ-1 in experiment [1] came out at 37%.
